Results on eight molecules are retold here after patent US20160272683A1 (Novo Nordisk, published 2016).

Numbered stars: 1 amine (or outer) side, 2 acyl side, 3 side chain; on linkers, the order of the positions; unused ones are H or OH. * marks the point of attachment. C20 diacid = O=C(O)CCCCCCCCCCCCCCCCCCC(=O)*; C18 diacid = O=C(O)CCCCCCCCCCCCCCCCC(=O)*; γGlu = O=C(O)[C@H](CCC(=O)[*:2])N[*:1]

The target in experiment [1] is T1, human calcitonin receptor on BHK570/CRE-luc cells (human, UniProt P30988 25-474).
T1 sequence (looked up): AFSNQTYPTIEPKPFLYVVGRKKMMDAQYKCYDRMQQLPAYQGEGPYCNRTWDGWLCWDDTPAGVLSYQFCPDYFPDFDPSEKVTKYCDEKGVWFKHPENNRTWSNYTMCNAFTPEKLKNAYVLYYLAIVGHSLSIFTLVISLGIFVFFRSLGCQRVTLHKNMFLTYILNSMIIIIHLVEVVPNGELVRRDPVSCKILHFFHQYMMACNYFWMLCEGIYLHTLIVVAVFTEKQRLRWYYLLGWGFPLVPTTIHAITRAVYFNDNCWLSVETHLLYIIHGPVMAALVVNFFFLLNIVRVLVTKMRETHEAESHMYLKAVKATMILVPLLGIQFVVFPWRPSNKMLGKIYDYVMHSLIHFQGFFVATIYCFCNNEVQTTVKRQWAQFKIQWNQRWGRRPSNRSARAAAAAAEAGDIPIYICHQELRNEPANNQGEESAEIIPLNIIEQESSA
Kind of experiment: cell-based or functional assay.

Experiment [2] has as its target T2, human amylin 3(a) receptor (human calcitonin receptor co-expressed with RAMP-3) on BHK570/CRE-luc cells (human, UniProt P30988 25-474; O60896 24-148).
T2 sequence (looked up) 1: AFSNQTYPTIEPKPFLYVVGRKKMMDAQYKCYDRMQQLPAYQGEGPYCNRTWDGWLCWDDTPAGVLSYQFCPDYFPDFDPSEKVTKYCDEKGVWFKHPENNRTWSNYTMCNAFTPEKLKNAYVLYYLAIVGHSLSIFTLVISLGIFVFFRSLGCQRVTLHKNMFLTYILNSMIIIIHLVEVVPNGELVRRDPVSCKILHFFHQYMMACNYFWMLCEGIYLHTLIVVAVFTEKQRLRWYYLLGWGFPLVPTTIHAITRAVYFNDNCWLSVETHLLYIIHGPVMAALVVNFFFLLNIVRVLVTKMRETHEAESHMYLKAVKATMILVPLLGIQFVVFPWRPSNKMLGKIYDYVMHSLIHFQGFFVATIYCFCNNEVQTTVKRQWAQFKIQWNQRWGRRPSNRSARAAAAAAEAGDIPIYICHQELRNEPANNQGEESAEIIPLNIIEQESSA
T2 sequence (looked up) 2: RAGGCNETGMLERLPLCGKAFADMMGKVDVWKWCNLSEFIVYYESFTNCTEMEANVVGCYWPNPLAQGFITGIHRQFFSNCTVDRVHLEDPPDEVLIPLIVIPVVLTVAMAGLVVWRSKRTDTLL
As to the kind of experiment: cell-based or functional assay.

B1: [N-terminal(C20 diacid-gGlu), des1, 12H, 25H, 30T, 31G, 32T]mimylin (peptide)
peptide: {C20 diacid-γGlu}-ASELSTAALGHLSAELHELATLPHTETGTGTP-NH2
SMILES: CC(C)C[C@H](NC(=O)[C@H](C)NC(=O)[C@H](C)NC(=O)[C@@H](NC(=O)[C@H](CO)NC(=O)[C@H](CC(C)C)NC(=O)[C@H](CCC(=O)O)NC(=O)[C@H](CO)NC(=O)[C@H](C)NC(=O)CC[C@H](NC(=O)CCCCCCCCCCCCCCCCCCC(=O)O)C(=O)O)[C@@H](C)O)C(=O)NCC(=O)N[C@@H](Cc1c[nH]cn1)C(=O)N[C@@H](CC(C)C)C(=O)N[C@@H](CO)C(=O)N[C@@H](C)C(=O)N[C@@H](CCC(=O)O)C(=O)N[C@@H](CC(C)C)C(=O)N[C@@H](Cc1c[nH]cn1)C(=O)N[C@@H](CCC(=O)O)C(=O)N[C@@H](CC(C)C)C(=O)N[C@@H](C)C(=O)N[C@H](C(=O)N[C@@H](CC(C)C)C(=O)N1CCC[C@H]1C(=O)N[C@@H](Cc1c[nH]cn1)C(=O)N[C@H](C(=O)N[C@@H](CCC(=O)O)C(=O)N[C@H](C(=O)NCC(=O)N[C@H](C(=O)NCC(=O)N[C@H](C(=O)N1CCC[C@H]1C(N)=O)[C@@H](C)O)[C@@H](C)O)[C@@H](C)O)[C@@H](C)O)[C@@H](C)O
Consider B1, for which the “hCTR funct. EC50 (pM), tested with HSA” value in experiment [1] is 109 pM. The “hAmylin-R funct. EC50 (pM), tested with HSA” value (shortened to “hAmylin-R funct. EC50 (pM)”) in experiment [2] was found to be 729 pM.

B2: [N-terminal(C20 diacid-gGlu), des1, 21S, 23Y, 30S, 31G, 33Y]mimylin (peptide)
peptide: {C20 diacid-γGlu}-ASELSTAALGRLSAELHELSTYPRTETGSGSY-NH2
SMILES: CC(C)C[C@H](NC(=O)[C@H](C)NC(=O)[C@H](C)NC(=O)[C@@H](NC(=O)[C@H](CO)NC(=O)[C@H](CC(C)C)NC(=O)[C@H](CCC(=O)O)NC(=O)[C@H](CO)NC(=O)[C@H](C)NC(=O)CC[C@H](NC(=O)CCCCCCCCCCCCCCCCCCC(=O)O)C(=O)O)[C@@H](C)O)C(=O)NCC(=O)N[C@@H](CCCNC(=N)N)C(=O)N[C@@H](CC(C)C)C(=O)N[C@@H](CO)C(=O)N[C@@H](C)C(=O)N[C@@H](CCC(=O)O)C(=O)N[C@@H](CC(C)C)C(=O)N[C@@H](Cc1c[nH]cn1)C(=O)N[C@@H](CCC(=O)O)C(=O)N[C@@H](CC(C)C)C(=O)N[C@@H](CO)C(=O)N[C@H](C(=O)N[C@@H](Cc1ccc(O)cc1)C(=O)N1CCC[C@H]1C(=O)N[C@@H](CCCNC(=N)N)C(=O)N[C@H](C(=O)N[C@@H](CCC(=O)O)C(=O)N[C@H](C(=O)NCC(=O)N[C@@H](CO)C(=O)NCC(=O)N[C@@H](CO)C(=O)N[C@@H](Cc1ccc(O)cc1)C(N)=O)[C@@H](C)O)[C@@H](C)O)[C@@H](C)O
Regarding B2, the “hCTR funct. EC50 (pM), tested with HSA” value in experiment [1] turned out to be 48 pM. The “hAmylin-R funct. EC50 (pM)” value in experiment [2] turned out to be 64 pM.

B3: [N-terminal(C18 diacid-gGlu), des1, 5V, 9V, 10V, 30S, 31G]mimylin (peptide)
peptide: {C18 diacid-γGlu}-ASEVSTAVVGRLSAELHELATLPRTETGSGSP-NH2
SMILES: CC(C)C[C@H](NC(=O)[C@H](CCC(=O)O)NC(=O)[C@H](Cc1c[nH]cn1)NC(=O)[C@H](CC(C)C)NC(=O)[C@H](CCC(=O)O)NC(=O)[C@H](C)NC(=O)[C@H](CO)NC(=O)[C@H](CC(C)C)NC(=O)[C@H](CCCNC(=N)N)NC(=O)CNC(=O)[C@@H](NC(=O)[C@@H](NC(=O)[C@H](C)NC(=O)[C@@H](NC(=O)[C@H](CO)NC(=O)[C@@H](NC(=O)[C@H](CCC(=O)O)NC(=O)[C@H](CO)NC(=O)[C@H](C)NC(=O)CC[C@H](NC(=O)CCCCCCCCCCCCCCCCC(=O)O)C(=O)O)C(C)C)[C@@H](C)O)C(C)C)C(C)C)C(=O)N[C@@H](C)C(=O)N[C@H](C(=O)N[C@@H](CC(C)C)C(=O)N1CCC[C@H]1C(=O)N[C@@H](CCCNC(=N)N)C(=O)N[C@H](C(=O)N[C@@H](CCC(=O)O)C(=O)N[C@H](C(=O)NCC(=O)N[C@@H](CO)C(=O)NCC(=O)N[C@@H](CO)C(=O)N1CCC[C@H]1C(N)=O)[C@@H](C)O)[C@@H](C)O)[C@@H](C)O
For the molecule B3, the “hCTR funct. EC50 (pM), tested with HSA” value in experiment [1] is 11 pM. For the same molecule, the “hAmylin-R funct. EC50 (pM)” value in experiment [2] was found to be 38 pM.
Turning to {C18 diacid-γGlu}-ASELTTAVLGRLSAELHELATLPRTETGTGTP-NH2 [[N-terminal(C18 diacid-gGlu), des1, 6T, 9V, 30T, 31G, 32T]mimylin], in experiment [1], the “hCTR funct. EC50 (pM), tested with HSA” value amounted to 13 pM. Also, in experiment [2], the “hAmylin-R funct. EC50 (pM)” value is 52 pM.

B4: [N-terminal(C20 diacid-gGlu), des1, 9T, 21S, 23Y, 30S, 31G]mimylin (peptide)
peptide: {C20 diacid-γGlu}-ASELSTATLGRLSAELHELSTYPRTETGSGSP-NH2
SMILES: CC(C)C[C@H](NC(=O)[C@H](CCCNC(=N)N)NC(=O)CNC(=O)[C@H](CC(C)C)NC(=O)[C@@H](NC(=O)[C@H](C)NC(=O)[C@@H](NC(=O)[C@H](CO)NC(=O)[C@H](CC(C)C)NC(=O)[C@H](CCC(=O)O)NC(=O)[C@H](CO)NC(=O)[C@H](C)NC(=O)CC[C@H](NC(=O)CCCCCCCCCCCCCCCCCCC(=O)O)C(=O)O)[C@@H](C)O)[C@@H](C)O)C(=O)N[C@@H](CO)C(=O)N[C@@H](C)C(=O)N[C@@H](CCC(=O)O)C(=O)N[C@@H](CC(C)C)C(=O)N[C@@H](Cc1c[nH]cn1)C(=O)N[C@@H](CCC(=O)O)C(=O)N[C@@H](CC(C)C)C(=O)N[C@@H](CO)C(=O)N[C@H](C(=O)N[C@@H](Cc1ccc(O)cc1)C(=O)N1CCC[C@H]1C(=O)N[C@@H](CCCNC(=N)N)C(=O)N[C@H](C(=O)N[C@@H](CCC(=O)O)C(=O)N[C@H](C(=O)NCC(=O)N[C@@H](CO)C(=O)NCC(=O)N[C@@H](CO)C(=O)N1CCC[C@H]1C(N)=O)[C@@H](C)O)[C@@H](C)O)[C@@H](C)O
B4: the “hCTR funct. EC50 (pM), tested with HSA” value in experiment [1] amounted to 105 pM. The “hAmylin-R funct. EC50 (pM)” value in experiment [2] was 150 pM.

B5: [N-terminal(C20 diacid-gGlu), des1, 9S, 23Y, 30S, 31G, 33Y]mimylin (peptide)
peptide: {C20 diacid-γGlu}-ASELSTASLGRLSAELHELATYPRTETGSGSY-NH2
SMILES: CC(C)C[C@H](NC(=O)[C@H](CO)NC(=O)[C@H](C)NC(=O)[C@@H](NC(=O)[C@H](CO)NC(=O)[C@H](CC(C)C)NC(=O)[C@H](CCC(=O)O)NC(=O)[C@H](CO)NC(=O)[C@H](C)NC(=O)CC[C@H](NC(=O)CCCCCCCCCCCCCCCCCCC(=O)O)C(=O)O)[C@@H](C)O)C(=O)NCC(=O)N[C@@H](CCCNC(=N)N)C(=O)N[C@@H](CC(C)C)C(=O)N[C@@H](CO)C(=O)N[C@@H](C)C(=O)N[C@@H](CCC(=O)O)C(=O)N[C@@H](CC(C)C)C(=O)N[C@@H](Cc1c[nH]cn1)C(=O)N[C@@H](CCC(=O)O)C(=O)N[C@@H](CC(C)C)C(=O)N[C@@H](C)C(=O)N[C@H](C(=O)N[C@@H](Cc1ccc(O)cc1)C(=O)N1CCC[C@H]1C(=O)N[C@@H](CCCNC(=N)N)C(=O)N[C@H](C(=O)N[C@@H](CCC(=O)O)C(=O)N[C@H](C(=O)NCC(=O)N[C@@H](CO)C(=O)NCC(=O)N[C@@H](CO)C(=O)N[C@@H](Cc1ccc(O)cc1)C(N)=O)[C@@H](C)O)[C@@H](C)O)[C@@H](C)O
As to B5, the “hCTR funct. EC50 (pM), tested with HSA” value in experiment [1] turned out to be 42 pM. Also, the “hAmylin-R funct. EC50 (pM)” value in experiment [2] came to 81 pM.

B6: [N-terminal(C20 diacid-gGlu), des1, 4G, 9V, 23Y, 30S, 31G, 32T]mimylin (peptide)
peptide: {C20 diacid-γGlu}-ASGLSTAVLGRLSAELHELATYPRTETGSGTP-NH2
SMILES: CC(C)C[C@H](NC(=O)CNC(=O)[C@H](CO)NC(=O)[C@H](C)NC(=O)CC[C@H](NC(=O)CCCCCCCCCCCCCCCCCCC(=O)O)C(=O)O)C(=O)N[C@@H](CO)C(=O)N[C@H](C(=O)N[C@@H](C)C(=O)N[C@H](C(=O)N[C@@H](CC(C)C)C(=O)NCC(=O)N[C@@H](CCCNC(=N)N)C(=O)N[C@@H](CC(C)C)C(=O)N[C@@H](CO)C(=O)N[C@@H](C)C(=O)N[C@@H](CCC(=O)O)C(=O)N[C@@H](CC(C)C)C(=O)N[C@@H](Cc1c[nH]cn1)C(=O)N[C@@H](CCC(=O)O)C(=O)N[C@@H](CC(C)C)C(=O)N[C@@H](C)C(=O)N[C@H](C(=O)N[C@@H](Cc1ccc(O)cc1)C(=O)N1CCC[C@H]1C(=O)N[C@@H](CCCNC(=N)N)C(=O)N[C@H](C(=O)N[C@@H](CCC(=O)O)C(=O)N[C@H](C(=O)NCC(=O)N[C@@H](CO)C(=O)NCC(=O)N[C@H](C(=O)N1CCC[C@H]1C(N)=O)[C@@H](C)O)[C@@H](C)O)[C@@H](C)O)[C@@H](C)O)C(C)C)[C@@H](C)O
For the molecule B6, the “hCTR funct. EC50 (pM), tested with HSA” value in experiment [1] was 35 pM. Besides, the “hAmylin-R funct. EC50 (pM)” value in experiment [2] was found to be 66 pM.
Regarding {C18 diacid-γGlu}-ASELTTAVLGRLSAELHELATLPRTETGSGTP-NH2 [[N-terminal(C18 diacid-gGlu), des1, 6T, 9V, 30S, 31G, 32T]mimylin], the “hCTR funct. EC50 (pM), tested with HSA” value in experiment [1] was found to be 75 pM. The “hAmylin-R funct. EC50 (pM)” value in experiment [2] turned out to be 30 pM.
